Assay results taken from PMC10866687 (2024).

B1: cortactin-GFP (wild type), in 293T cells [not stated] / FLAG-MAP1B-LC1 (wild type) [not stated (human or rat cDNA cloned)] (parent complex)
chain 1: not shown
chain 2: DRSPSPRHPDVSMVDPEALAIEQNLGKALKKDLKEKTKTKKPGTKTKSSSPVKKSDGKSKPLAASPKPAGLKESSDKVSRVASPKKKESVEKAAKPTTTPEVKAARGEEKDKETKNAANASASKSAKTATAGPGTTKTTKSSAVPPGLPVYLDLCYIPNHSNSKNVDVEFFKRVRSSYYVVSGNDPAAEEPSRAVLDALLEGKAQWGSNMQVTLIPTHDSEVMREWYQETHEKQQDLNIMVLASSSTVVMQDESFPACKIEL

Variants of: B1
Test: coimmunoprecipitation (IP FLAG, immunoblot quantification); n = 4 experiments; parent: 100; read off a plot

Question: How did the percent of parent turn out when chain 2 P66A, chain 2 K67A, chain 2 P68A was run?
Answer: ~93 % of WT

Question: Which percent of parent does the source give for chain 2 P145A, chain 2 P146A here?
Answer: ~36 % of WT

Question: For chain 2 K60A, chain 2 P61A, which percent of parent is on record?
Answer: ~120 % of WT

Question: How did the percent of parent turn out when chain 2 P6A, chain 2 R7A was run?
Answer: ~78 % of WT

Question: chain 2 K95A, chain 2 P96A was tested. Which percent of parent did it give?
Answer: ~110 % of WT

Question: With chain 2 K41A, chain 2 P42A as the variant, how does the percent of parent read?
Answer: ~76 % of WT
